The values below are quoted from earlier work in patent US20110300070A1, “BIOMOLECULE COMPLEXES AS CONTRAST AGENTS IN POSITRON EMISSION TOMOGRAPHY (PET) BASED METHODS FOR THE ASSESSMENT OF ORGAN FUNCTION” (priority 2008, published 2011).

In this data set the test system is proximal tubular cells. The following applies: in vivo.

As to “cytochrome C: heme protein, about 100 amino acids, about 12 kD”, the “time window where the filtered amount of the tracer is still quantitatively retained in the proximal tubular cells” value was “about 5 minutes”.

B1: cystatin C: cysteine protease inhibitor, about 120 amino acids, about 13 kD (protein, UniProt P01034 27-146, looked up)
Cystatin-C: SSPGKPPRLVGGPMDASVEEEGVRRALDFAVGEYNKASNDMYHSRALQVVRARKQIVAGVNYFLDVELGRTTCTKTQPNLDNCPFHDQPHLKRKAFCSFQIYAVPWQGTMTLSKSTCQDA
With B1, the optimal clearance period entry was “less than 5 minutes” and the “time window where the filtered amount of the tracer is still quantitatively retained in the proximal tubular cells” value was “about 5 minutes”.
